According to paper PMC4259810:

Assays:
[1] = target: DLC1 Rho-GAP domain, 609-878 (UniProt Q96QB1); assay: GST pull-down from cotransfected cells, GFP blot; conditions: sites S120,S205,S422,S509
DLC1 500-1,091 = DLC1 500-1,091 (UniProt Q96QB1); assay: GST pull-down from cotransfected cells, GFP blot; conditions: reference: GST-(1–550)-WT; sites S120,S205,S422,S509

| binding against the reference ([1]; reference: GST-(1–550)-WT) | binding against the reference (DLC1 500-1,091) | binding against the reference ([1]; reference: GST-DLC1(80–550)-WT) | Substance |
| --- | --- | --- | --- |
| stronger | stronger | – | DLC1 1-550 (from UniProt Q96QB1-1) GST-(1–550)-4A |
| – | – | stronger | DLC1 80-550 (from UniProt Q96QB1-1) GST-DLC1(80–550)-4A |
